Data on one molecule can be found in patent US12280121B2, “Immunoconjugates and methods” (Immunome, Inc., priority 2021, dated 2025).

Where two headings read alike, the source gives them in different places.

This assay has as its system Jeko-1. As to the kind of experiment: CTG assay of ROR-1 ADCs and toxins, JeKo-1. The format is cell-based. How it is done: FIG. 33 illustrates a CTG assay wherein ROR+ (JeKo-1) cells were incubated with the ADCs generated as described in FIG. 32 in serial three-fold dilutions and cell viability was assessed after 72 hours.
The CTG assay is a method of determining the number of viable cells in culture based on quantitation of the ATP present, an indicator of metabolically active cells. The cell assay requires the addition of a single reagent, Cell Titer Glo, in which cells are lysed and generation of a luminescent signal is produced. The luminescent signal is proportional to the amount of ATP present. The amount of ATP is directly proportional to the number of cells present in culture. For our assay, cells were ensured to be in log-phase for either Jeko-1 or MDA-MB-468. Cells were transferred to 96 wells and treated with compounds in three-fold serial dilution starting from 1 μM to 0.0000508 μM (10 points dilution), for 72 h. Cell viability was analyzed with CellTiter-Glo® Luminescent Cell Viability Assay (Promega) following manufactures' instruction. Percentage of viable cells in each compound concentration was determined by normalizing with the luminescence of vehicle control and plotted into percentage of viability versus dose response curve by nonlinear fit in GraphPad Prism software.
Novel ROR-1 antibody-drug conjugates (ADCs) were evaluated by CTG Assay in a similar manner as was described in Example 24 for screening of payloads. […] Briefly ROR+(JeKo-1/MDA-MB-468) or ROR− (Ramos) cells were transferred to 96 wells and treated with the ADCs in three-fold serial dilution starting from […] (10 points dilution), for 72 h. Cell viability was analyzed with CellTiter-Glo® Luminescent Cell Viability Assay (Promega) following the manufactures' instructions (FIG. 33). The percentage of viable cells at each ADC concentration was determined by normalizing with the luminescence of vehicle control and plotted into percentage of viability versus dose response curve by nonlinear fit in GraphPad Prism software.

B1: VLS-101 (conjugate, chains of the INN, looked up)
VH: QVQLQESGPGLVKPSQTLSLTCTVSGYAFTAYNIHWVRQAPGQGLEWMGSFDPYDGGSSYNQKFKDRLTISKDTSKNQVVLTMTNMDPVDTATYYCARGWYYFDYWGHGTLVTVSS
VL: DIVMTQTPLSLPVTPGEPASISCRASKSISKYLAWYQQKPGQAPRLLIYSGSTLQSGIPPRFSGSGYGTDFTLTINNIESEDAAYYFCQQHDESPYTFGEGTKVEIK
modifications: vedotin (MMAE) payload
In the case of B1, the IC50 – broadly, the concentration at which inhibition is half-maximal – (Jeko-1, average of run 1 and run 2, read-out: Avg. IC50) is 60.1 nM; the IC50 (Jeko-1 P3, run 1, 72 h, read-out: Jeko-1 P3 (RUN1) IC50) is 63.4 nM; the IC50 (Jeko-1 P4, run 2, 72 h, read-out: Jeko-1 P4 (RUN2) IC50) was 56.8 nM.
